Laboratory results: doi:10.1101/444554 (bioRxiv, 2018)

Experiments:
crystal structure = target: the molecule itself; test: crystal structure
non-reducing SDS-PAGE = target: the molecule itself; test: non-reducing SDS-PAGE
SEC-MALS = target: the molecule itself; test: SEC-MALS

B1: mouse 4-1BB ligand ectodomain (amino acids 140-309) without purification tag, co-expressed with m4-1BB for the complex structure (domain or fragment, UniProt P41274 140-309, looked up)
chain: TTQQGSPVFAKLLAKNQASLCNTTLNWHSQDGAGSSYLSQGLRYEEDKKELVVDSPGLYYVFLELKLSPTFTNTGHKVQGWVSLVLQAKPQVDDFDNLALTVELFPCSMENKLVDRSWSQLLLLKAGHRLSVGLRAYLHGAQDAYRDWELSYPNTTSFGLFLVKPDNPWE
modifications: disulfide linked dimer
Crystal structure
  stoichiometry N: 2

B2: mouse 4-1BB ligand ectodomain (amino acids 140-309) S256F (domain or fragment, UniProt P41274 140-309, looked up)
chain: TTQQGSPVFAKLLAKNQASLCNTTLNWHSQDGAGSSYLSQGLRYEEDKKELVVDSPGLYYVFLELKLSPTFTNTGHKVQGWVSLVLQAKPQVDDFDNLALTVELFPCSMENKLVDRFWSQLLLLKAGHRLSVGLRAYLHGAQDAYRDWELSYPNTTSFGLFLVKPDNPWE
modifications: inter-molecular disulfide through Cys 246
non-reducing SDS-PAGE
  stoichiometry N: 2

B3: mouse 4-1BB ligand ectodomain (amino acids 140-309) C246S (domain or fragment, UniProt P41274 140-309, looked up)
chain: TTQQGSPVFAKLLAKNQASLCNTTLNWHSQDGAGSSYLSQGLRYEEDKKELVVDSPGLYYVFLELKLSPTFTNTGHKVQGWVSLVLQAKPQVDDFDNLALTVELFPSSMENKLVDRSWSQLLLLKAGHRLSVGLRAYLHGAQDAYRDWELSYPNTTSFGLFLVKPDNPWE
SEC-MALS
  stoichiometry N: 2
